Experimental data taken from patent US20150299252A1.
Where no end group is shown, it is not given here.

Target: T1, Fc-chimeric NKG2D, P26718
T1 chain: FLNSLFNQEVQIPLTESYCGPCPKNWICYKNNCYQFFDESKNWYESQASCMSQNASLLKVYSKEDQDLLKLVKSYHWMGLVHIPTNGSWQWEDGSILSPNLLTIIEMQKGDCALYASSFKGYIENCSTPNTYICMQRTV

B1: biotinylated SVH1C (quadravalent, C-terminal ε-biotinyl-lysine amide) (peptide)
peptide: NPSHPLSGGGGS
chain: KKKK
modifications: not fully specified (some residues, C-terminus); also: quadravalent: four peptide copies on lysine scaffold
Kd: 1000 nM
